In patent US20110251266:

Target: beta-NGF (nerve growth factor) (Homo sapiens) (UniProt P01138)
Assay: cell_activity
Conditions: as SEQ30(6); 100 nM aptamer; parent 92.7%

beta-NGF (nerve growth factor) (Homo sapiens), sequence (P01138 122-241): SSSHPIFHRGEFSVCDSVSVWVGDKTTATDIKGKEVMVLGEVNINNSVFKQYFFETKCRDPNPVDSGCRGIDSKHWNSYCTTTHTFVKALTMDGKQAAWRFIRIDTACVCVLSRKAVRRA

Sequence | activity [% inhibition]
GGGAUAAAAAUAGAGUUUGAUAAACACCUGUAUUAAAACCC [SEQ30(6) G20A] | 96.1
GGGAUAAAAAUAGAGUUUGAUAAACACCUGUAUUAAAACCC [SEQ30(6) G23A] | 91.2
